Experimental data taken from patent US20160052997A1 (CELLTRION, published 2016).

Target: HA of A/CA/04/09 (H1N1) virus (Influenza A virus A/CA/04/09 (H1N1))
Test: cell-based or functional assay

B1: CT120 (antibody, V domains shown)
VH: QVQLVQSGAEVKMPGSSVKVSCKTSGVFFSSHAISWVRQAPGQGLEWMGGISPMFGTTHYAQKFQGRVTITADQSTTTAYMELTSLTSEDTAVYYCARDGAGSYYPLNWFDPWGQGTLVTVSS
VL: EIVLTQSPATLSLSPGERATLSCRASENIWNNLAWYQQKPGQAPRLLISGASTGATGVPSRFRGSGSRTEFTLTISSLQSEDFAIYFCQQYNSWPRTFGPGTKVEIKR
In the case of B1, the “EC50, microneutralization test” value is reported as 0.21 µg/mL.
